According to the nanobody polyreactivity screen of Harvey et al. (2022):

Assay: yeast display, Sf9 membrane polyspecificity reagent, FACS + sequencing; frameworks hold sequencing errors
Outline: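 Sorting gates, low and high (top ~1%), were placed on anti-HA fluorescence to track expression and on streptavidin fluorescence to track reagent binding. A clone's polyreactivity label is taken from the gate it came out of. The reagent was 10% biotinylated, detergent-solubilized Sf9 membrane, applied for 1 hour at 4 °C to galactose-induced yeast display cells.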

Sequence | polyreactivity (PSR sort gate)
QVQLVESGGLLVQAGGSLRLSCAASGFNFYNYAMGWYRQAPGKERELVAAISKRGGRTYYADSVKGRFTISRDNAKITVYLQMNRLKPVDTAVYYCNTDAVRPYHVAWYDYWGQGTQVTVSS | high polyreactivity
QVQLVETGGGLVQAGGSLRLSCAASGFIFVDYAMGWYRPAPGKERELVAAITSNDDRTYYADSVKGRFTISRDNAKNTVYLQMNSLKPEDTAVYYCAAGGWGATADATFTYLYDYWGQGTQVTVSS | low polyreactivity
QVQLVESGGGLVQAGGSLRLSCAASGRIFQYYAMGWYRQAPGKERELVAAISRGGSTNYADSVKGRFTISRDNAKNTVYLQMNSLKPEDTAVYFCAADEYRYYFYRAGIGFDYWGQGTQVTVSS | low polyreactivity
QVQLVESGGGLVQAGGSLRLSCAASGRIFYFNARGWYRQAPGKERELVAAITSGGSTYYADSVKGRFTISRDNAKNTVYLQMNSLKPEDTAVYYCATDWPHWRYVYWFDYWGQGTQVTVSS | low polyreactivity
QDQLVESGGGLVQAGGSLRLSCDASGSIFEQNAMGWYRPAPGKERELVAAISSGSTNYADSVKGRFTISRDNAKNTVYLQMNSLKPEDTAVYYCAKRWRRRFVDVWSLYDYWGQGTQVTVSS | low polyreactivity
QVQLVESGGGLVQAGGSLRLSCAASGSIFRYYAMGWYRQAPGKERELVAAISSNGGSTYYADSVKGRFTISRDNAKNTVYLQMNSLKPEDTAVYYCAALFRRAPGYYWGQGTQVTVSS | high polyreactivity
QVQLVESGGGLVQAGGSLRLSCAASGGTFYINTMGWNRQAPGKERELVATITIVVSTKYADSVKGRFTISRDNAKNTVYLQMNSLNPEDTAVYYCAKDDVYRDSFLVFDGEMVYWGQGTQVTVSS | low polyreactivity
QVQLVESGGGLVQAGGSLRLSCAASGIIFIGNAMGWYRQAPGKERELVAAISRRGGRTYYADSVKGRFTISRDNAKNTVYLQMNSLKPEDTAVYYCNAEITVNDDDYWGQGTQVTVSS | low polyreactivity
QVQLVESGGALVQAGGSLRLSCAASGFTFTINDMGWYRQAPGKERELVATINDSAGSTYYADSVKGRFTISRDNAKNTVYLQMNSQKPDATAVYYCNAYKATRWFEYVYWGQGTQVTVSS | low polyreactivity
QVQLVESGGGLVQAGGSLRLSCAASGSIFDYYTMGCYRQAAGKERELVATIRSGDSTNYADSLKGRFTISRDIEMNRVYLQMNSLKPEDTAVYYCAAVDGAYPTLYDYWGQGTQVTVSS | low polyreactivity
QVQLVESGGGLVQAGGSLRLSCAASGSTFDVYAMGWYRQAPGKERELVAAITWIGGSTYYADSVKGRFTISRDNAKNTVYLQMNSLKPDDTAVYYCARHDYGWVDYWGQGTQVTVSS | high polyreactivity
QVQLVESGGGLVQAGGSLRLSCAASGLIFTTYAMGWYRQAPGKERELVAAISSSGDSTYYADSVKGRFTISRDNAKNTVYLQMNSLKPEDTAVYYCAARYYYRGYEFGYWGQGTQVTVSS | high polyreactivity
QVQLVESGGGLVQAGGSLRLSCAASGFIFQGYTMGWYRQAAGKERELVAAITSSGRTYYADSVKGRFTISRDNAKNTVYLQMNSLKPEDTAVYYCNADFLPSVANDYWGQGTQVTVSS | low polyreactivity
QVQLVESGGGLVQARGSLRLSCAASGSTFVGYAMGWYRQAPGKEREFVAAITRGGSTNYADSVKGRFTISRDNAKNTVYLQMNSLKPEDTAVYYCAARDRREGFNFDYWGQGTQVTVSS | low polyreactivity
QVQLVESGGGLVQAGGSLRLICAASGYTLATYTMRWYIQAPGKERELVAAISFGGSTYYADSVKGRFTISRDNAKNTVYLQMNSLKPEDTAVYYCAVYGDSYWGAYYYSDGYWGQGTQVTVSS | low polyreactivity
QVQLVESGGGLVQAGGSLRLSCAASGSTFGYYTMGWYRQAPGKERELVAAISRSGGRTYYADSVKGRFTISRDNAKNAVYLQMNSLKPEDTAVYYCNADGTRYAGDDYWGQGTQVTVSS | high polyreactivity
QVQLVESGGGLVQAGGSLRLSCAASGRILARYTMGWYRQAPGKERELVAAISRSSGSTYYADSVKGRFTISRDTAKNTVYLQMNSLKPEDTAVYYCAAYLSYWGQGTQVTVSS | high polyreactivity
QVQLVESGGGLVQAGGSLRLSCAASGSTFYPYGMGWYRHAPGKERDLVAAISKRGGSTYYADSVKGRFTISRDNAKNTVYLQMNSLKPEDTAVYYCAAYGAGKFWAEHNYWGQGTQVTVSS | high polyreactivity
QVQLVESGGGLVQAGGSLRLSCAASGRTFDKYAMGCYRPAPGTQRELVAAINSSGGSTYYSDSVKGRFTISRDNEKNTVYLQMNSLKPEDTAFYYCAALGIGSYRRYSCYDYWGQGPQVTVSS | low polyreactivity
QVQLVESGGGLVQAGGSLRLSCAASGSTFFGNAMGWYRQAPGKERELVAAITSGGSTNYADSVKGRFTISRDNAKNTVYLQMNSLKPEDTAVYYCAKPSRWGWTGFYAYDYWGQGTQVTVSS | low polyreactivity
QVQLVESGGGLVQAGGSLRLSCAASGRIFAYYAMGWYRQAPGKERELVAAINWSGDGTIYADSVKWRFTISRDNAKNTVYLQMNSLKPQDTAVYYCNADWTSYGFGTRLDYWGQGNQVTVSS | low polyreactivity
QVQLVESGGGLVQAGGSLRLSCAASGNNIVINAMGWYRPAPGKERELVAAINWTGGNTYYADSVKGRFTISRDNAKNTVYLQMNSLKPEDSAVYYCAADRRWFVWGLGYWGQGTQVTVSS | low polyreactivity

Sequence | polyreactivity (PSR sort gate)
QVQLVESGGGLVQAGGSLRLSCAASGLIFNVNAMGWYRQAPRKERELVAAITGGGGSTYYADSVKGRFTISRDNAKNTVYLQMNSLKPEDTAVYYCAATTGLYTRYGDWGQVTQVTVSS | high polyreactivity
QVQLVESGGGLVQAGGSLRLSCAASGFIFIYNAMGWYRQAPGKERELVAAISRSGGSTYYADSVKGRFTISRDNAKNTVYLHMNSLKPEDTAVYYCNARPGSRYYGYRLYYYWGQGTQVTVSS | high polyreactivity
QVQLVESGGGLVQAGGSLRLSCAASGRIFGRYAMGWYRQAPGNERELVAAISRRGSRTYYADSVKGRFTISRDNAKNTVYLQMNSLKPEDTAVYYCNALTGSFKTYSFDYWGQGTQVTVSS | high polyreactivity
QDQHVESGGGLVQAGGSLRLICAASGNTFGWYAMGWYRQAPGKEREFVADISWSGGSTYYADSVKGRFTISRDNAKNTVYLQMNSLKQEDTAVYYCNAVWLYYWHADQYFEYDYWGQGTQVTVSS | high polyreactivity
QVQLGESGGGLVQAGGSLRLSCAASGRILSVYVMGWYRQAPGKERELVAAIRRGGYTYYADSVKGRFTISRDNAKNTVYLQMNSLKQEDTAVYYCNARQRPPPYYYWGQGTQLTVSS | high polyreactivity
QVQLVESGGGLVQAGGSLRLSCAASGRIFKDYAMGLYRQAPGKERELVAGIDYRGGSTYYADSVKGRFTISRDNAKNTVYLQMNSLKPEDNAVYYCAADSLISIYDYWGQGTQVTVSS | low polyreactivity
QVQLVESGGGLVQAGGSLRLSCAASGRIFYNYAMGWYRQAPGKERELVASINFSGTRTYYADSVKGRFTISRDNAKNTVYLQMNSLKPEDTAVYYCAARQAHGYYYWGQGTQVTVSS | high polyreactivity
QVQVVESGGGLVHAGGSHRLSCAASGSIFPPYSMGWYRQAPGKEREFVAAISYSGGSTYYADSVKGRFTISRDNGKHTVYFQMNSLKPEDTAVYYCGADRYGFYLESYYWGQGTQGTVSS | low polyreactivity
QVQLVESGGGLVQAGGSLRLSCAASGRIFGWYAMGWYRQAPGKERELVAAISRSGGSTYYADSVKGRFTISRDNAKNTVYLQMNSLKPEDTAVCYCAAAFSLGMYWGQGTQVTVSS | high polyreactivity
QVQLVESGGGVVQAGGSLRLSCAASGYTFLPYAMGWYRQAPGNARELVAAITVRGGRTYDADAVKGRFTISRHNAKKTVYLQMNSLKPEDTAVYYCHTDAYRLGYDYWGPGTQVTVSS | high polyreactivity
QVQLVESGGGLVQAGGSLRLSCAASGFTIPVYAMGWYRQAPGKEMELVADITESGDSTYYADSVKGRFTISRDNAKNTVYLQMNSLKPEDTAVYYCAADGGWFWSLFYTFAFDYCGQGTQVTVSS | low polyreactivity
QVQLVESGGGLVQAGGSLRLSCAASGFIFSKYAMGWYRQAPGKERELVAAISWSGGSTYYADSVKGRFTISRDNAKNTVYLQMNSLKPEDTAVYYCAADWYFELFRVYAEYDYWGQGTQVTVSS | low polyreactivity
QVQLVESGGGLVQAGGSLRLSCAASGGTFLAYAMGWYRQAPGKERELVAAITRRGTRTYYADSVKGRFTISRDNANNTVYLQMNSLKPEDTAVYYCAVSGGFYWGQGTQVTVSS | high polyreactivity
QVQLVESGGGLVQAGGSLRLSCAASGRIFYRNAMGWYRQAPGTDRELVARITSSGGTTYYADSVKGRFTISRDNAKNTVYLQMNSLQPEDTAVYYCAARSVTQRKMYYWGQGTQVTVSS | high polyreactivity
QVQLQESGGGLVQAGGSLRLSCEASGTIFKYYTMGWYRQAPGKEREFVAGINVGSTTNYADIVKGRFTISRDNAKNTVYLQMNSLKPEDTAVYYCAAYFIFLYYHDYWGLGTQVTVSS | low polyreactivity
QVQLVEAGGGLVQAGGSLRLSCAASGSTFYKNAMGWYRPAAGKERELVAGISRRGGPTYYADSVKGRFTISRDKAMNTVYLQMNSLNPEDTAVYYCNTGHEEDEYDYWGQGTQVTVSS | low polyreactivity
QVKLVESGGGLVQAGGTLRLSCAASGSISWVYAMGWYRQAPGKERELVADITDSGDSTYYADSVKGRFTISRDNAKNTVYLQMNSLKPEDTAVFYCAAVSGPFVQTSGNGEYDYCGQGTQVTVSS | low polyreactivity
QVQLVESGGGLVQAGGSLRLSCAASGRTFPRYAMGWYRQAPGKERELVAAISGTGGSTYYADSVKGRFTISRDNAKNTVYLQMNSLKPEDTAVYYCAAAFRDGFTRRYGYWGQGTQVTVSS | high polyreactivity
QVQLVESGGGLVQAGGSLRLSCAASGFIFVRYARGWNRQAPGKERELVASITRSGGSTYYADSVKGRFTISRDNAKNTVYLQMNSLKPEDTAVYYCAASYYRSRGSTYGYWGQGTQVTVSS | high polyreactivity
QVQVVESGGGLVQPGGSLRLSCAASGSTFGGKAMGWYRQATGKERELVAGITSSGTSTYYADSVKGRFTISRDNAKNTVFLQMNSLKPEDTAVYYCATDEAVESYGFELFDYWGQGTQVTVSS | low polyreactivity
QVQLVESGGGLVQAGGSLRLSCAASGSTFGGYAMGWYRQAPGKERELVAAISRRGVSTYYADSVKGRFTISRDNAKNTVYLQMNSLKPEDTAVYYFNKKYFYSRHGSWGQGSQVTVSS | high polyreactivity
